In assay [1] the target is T1, recombinant His-tagged human FcγRIIa (167-His [H]) (human, UniProt P12318 34-218, limits assumed).
T1 construct: Bought; captured on anti-His chip; also called FcγRIIa-H; not shown: His tag
T1 sequence (looked up): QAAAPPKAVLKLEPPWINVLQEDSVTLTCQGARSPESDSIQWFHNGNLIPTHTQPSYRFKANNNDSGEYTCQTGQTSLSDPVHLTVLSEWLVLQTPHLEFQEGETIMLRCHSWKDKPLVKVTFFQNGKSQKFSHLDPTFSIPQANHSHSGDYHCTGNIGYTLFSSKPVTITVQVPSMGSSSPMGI
Kind of assay: SPR (Biacore), His-tagged FcγRIIa-H captured on anti-His chip, antibody in solution, resonance units against antibody concentration.

The target in assay [2] is T2, recombinant His-tagged human FcγRIIb (human, UniProt P31994 43-217).
T2 construct: Bought; captured on anti-His chip; not shown: His tag
T2 sequence (looked up): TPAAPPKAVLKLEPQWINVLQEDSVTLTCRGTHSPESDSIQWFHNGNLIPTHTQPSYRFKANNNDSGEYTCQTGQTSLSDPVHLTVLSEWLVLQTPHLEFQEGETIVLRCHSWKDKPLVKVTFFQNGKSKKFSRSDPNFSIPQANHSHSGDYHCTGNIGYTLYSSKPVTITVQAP
The assay is described as follows: SPR (Biacore), His-tagged FcγRIIb captured on anti-His chip, antibody in solution, resonance units against antibody concentration. On the technique in general: In SPR one partner is held on a chip, and binding of the other changes the refractive index at the surface.

Assay [3] deals with T3, recombinant His-tagged human FcγRIIIa (176-Val [V]) (human, UniProt P08637 17-208).
T3 construct: Bought; captured on anti-His chip; also called FcγRIIIa-V; not shown: His tag
Kind of assay: SPR (Biacore), His-tagged FcγRIIIa-V captured on anti-His chip, antibody in solution, resonance units against antibody concentration.

For assay [4], the target named is T4, recombinant His-tagged human FcγRIa (human, UniProt P12314 16-288, limits assumed).
T4 construct: Bought; captured on anti-His chip; not shown: His tag
The assay is described as follows: SPR (Biacore), His-tagged FcγRIa captured on anti-His chip, antibody in solution, resonance units against antibody concentration. How it is done: Biacore surface chips were covalently linked with anti-His antibody and coated with recombinant His-tagged Fc receptors (A) FcγRIa, (B) FcγRIIa-H, (C) FcγRIIa-R, (D) FcγRIIb, (E) FcγRIIIa-F, or (F) FcγRIIIa-V. The anti-HIV-gp120 antibody IgG1-b12 (ctrl) was included as a reference. Shown are absolute resonance units as determined by Biacore SPR after background subtraction (no Fc receptor flow-cell).
Binding of IgG1-CD27-A-P329R-E345R to human FcγR variants was analyzed using a Biacore surface plasmon resonance (SPR) system and compared to an anti-HIV gp120 antibody IgG1-b12 (ctrl). Biacore Series S Sensor Chips CM5 (Cytiva, Cat #29104988) were covalently coated with anti-His antibody using amine-coupling and His capture kits (Cytiva, Cat #BR100050 and Cat #29234602) according to the manufacturer's instructions. […] After three cycles of buffer, antibody samples were injected for 36 cycles to generate binding curves using antibody ranges of 0-3,000 nM for FcγRI and 0-10,000 nM for the other FcγRs. Each sample that was analyzed on an FcR-coated surface (Active Surface) was also analyzed on a parallel flow-cell without FcR (Reference Surface), which was used for background correction. Dissociation from the anti-His-coated surface was performed by regeneration of the surface using 10 mM Glycine-HCl pH 1.5 (Cytiva, Cat #BR100354). […]

Assay [5] deals with T5, human CD27, full length, on cells (T cells, transfected HEK293F cells, Daudi cells, NFκB-luc2/CD27 Jurkat … (human, UniProt P26842 20-240)).
T5 construct: Residues 1-19 are stated to be the signal peptide; also called TNFRSF7
T5 sequence: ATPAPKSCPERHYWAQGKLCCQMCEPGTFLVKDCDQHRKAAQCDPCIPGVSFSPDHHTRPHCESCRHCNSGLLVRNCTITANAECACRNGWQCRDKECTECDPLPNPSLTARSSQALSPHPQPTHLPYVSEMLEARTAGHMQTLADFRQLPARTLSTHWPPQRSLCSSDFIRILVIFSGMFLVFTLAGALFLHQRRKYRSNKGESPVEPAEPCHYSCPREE
Kind of assay: flow cytometry on CD4+ T cells in human PBMC, FITC goat anti-human IgG F(ab')2, median FITC. How it is done:
Binding of IgG1-CD27-A-P329R-E345R to CD27 on human healthy donor T cells was characterized in more detail using flow cytometry. Anti-HIV gp120 antibody variant IgG1-b12-P329R-E345R was used as non-binding control antibody (ctrl). Human PBMCs were isolated from buffy coats obtained from human healthy donors. PBMC (1×10⁵ cells/well) in FACS buffer were added to polystyrene 96-well round-bottom plates (Greiner bio-one, Cat #650101) and pelleted by centrifugation at 300×g for 3 min at 4° C. The cells were resuspended in 50 μL/well serial antibody dilutions in FACS buffer (range 0.0015 to 10 μg/mL in 3-fold dilution steps) and incubated for 30 min at 4° C. Cells were pelleted, washed twice with FACS buffer and incubated in 50 μL/well with FITC-conjugated secondary antibody (FITC AffiniPure F(ab′)₂ fragment goat anti-human IgG, F(ab′)₂ fragment specific, Jackson ImmunoResearch, Cat #109-096-097, diluted 1:100) for 30 min at 4° C. in the dark. […] The samples were measured by flow cytometry on an LSRFortessa (BD) flow cytometer and analyzed using FlowJo software. Binding curves were analyzed using non-linear regression (sigmoidal dose-response with variable slope) using GraphPad Prism 8 software.

Broadly, the EC50 (read off the curve) is the concentration needed to bring the measured effect to its halfway point.

T3 sequence (P08637 17-208 F176V limits assumed): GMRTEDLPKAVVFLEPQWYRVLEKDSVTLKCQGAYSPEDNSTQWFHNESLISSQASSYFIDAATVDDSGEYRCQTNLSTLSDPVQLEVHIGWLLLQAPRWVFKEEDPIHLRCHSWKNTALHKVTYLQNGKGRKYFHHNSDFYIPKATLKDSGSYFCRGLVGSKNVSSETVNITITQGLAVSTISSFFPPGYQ
T4 sequence (P12314 16-288 limits assumed): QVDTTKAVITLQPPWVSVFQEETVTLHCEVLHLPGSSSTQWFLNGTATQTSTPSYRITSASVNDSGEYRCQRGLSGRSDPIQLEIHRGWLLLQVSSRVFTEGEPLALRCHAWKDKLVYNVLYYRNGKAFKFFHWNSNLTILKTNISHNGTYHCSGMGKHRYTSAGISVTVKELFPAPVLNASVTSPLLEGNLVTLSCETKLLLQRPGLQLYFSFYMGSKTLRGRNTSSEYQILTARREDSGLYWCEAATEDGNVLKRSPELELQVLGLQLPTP

B1: IgG1-CD27-A-P329R-E345R (antibody)
heavy: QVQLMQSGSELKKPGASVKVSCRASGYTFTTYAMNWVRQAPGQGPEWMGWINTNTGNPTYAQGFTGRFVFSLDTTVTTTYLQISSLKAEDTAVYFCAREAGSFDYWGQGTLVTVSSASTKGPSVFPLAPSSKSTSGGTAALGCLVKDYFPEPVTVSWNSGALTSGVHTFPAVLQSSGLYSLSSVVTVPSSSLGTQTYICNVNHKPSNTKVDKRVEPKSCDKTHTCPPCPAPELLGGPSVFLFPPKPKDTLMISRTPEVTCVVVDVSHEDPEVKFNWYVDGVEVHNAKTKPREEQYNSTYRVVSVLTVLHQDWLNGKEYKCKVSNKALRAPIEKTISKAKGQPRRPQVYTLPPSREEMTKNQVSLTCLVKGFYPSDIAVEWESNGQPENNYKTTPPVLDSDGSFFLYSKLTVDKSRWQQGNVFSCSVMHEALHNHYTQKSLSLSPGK
light: QSALTQPASVSGSPGQSITISCTGTSSDVYYYNYVSWYQQHPGRAPKLVIYDVSNRPSGVSNRFSGSKSGNTASLTISGLRAEDEADYYCSSYTVNRVWVFGGGTKLTVLGQPKAAPSVTLFPPSSEELQANKATLVCLISDFYPGAVTVAWKADSSPVKAGVETTTPSKQSNNKYAASSYLSLTPEQWKSHRSYSCQVTHEGSTVEKTVAPTECS
notes: also called IgG1-CD27-A-E345R-P329R
In the case of B1, the binding result in assay [1] is given as “no binding (tested: 10,000 nM)”; in assay [2] it was “no binding (tested: 10,000 nM)”; in assay [3], “no binding (tested: 10,000 nM)”; in assay [4], “binds”. The “EC50 (read off the curve)” value in assay [5] is roughly 0.03 µg/mL.

Values taken from patent publication US20250289899A1 (Genmab, published 2025).
